Test results taken from paper PMC4992063, “PARP3 is a sensor of nicked nucleosomes and monoribosylates histone H2BGlu2”.
Blank lines part the entries; values can stand above or below the molecule they belong to.

Columns and labels:
[1] = molecular target: Reconstituted nicked mononucleosome (recombinant histone octamer on 601.2 DNA with a site-specific nick) (Xenopus laevis | not stated); assay: Ni-NTA nanogold labelling with negative-stain electron microscopy; full-length His-tagged cPARP3 incubated for 30 min with intact or nicked nucleosomes; Ni-NTA-conjugated 5 nm gold added at 1:10 (cPARP3-nucleosomes:Ni-gold); negative stain with 2% uranyl acetate
[2] = test system: His-tagged cPARP3 (Gallus gallus); assay: negative-stain EM with Ni-NTA nanogold; conditions: NMR: 20 mM Tris-HCl pH 7.0, 125 mM NaCl, 1 mM TCEP, 10% D2O, 303 K, ~300 uM protein, EMSA and EM buffers not given in material
cPARP3 NTD-WGR (1-169) [3] = molecular target: T1, cPARP3 NTD-WGR (1-169) (Gallus gallus, UniProt E1BSI0 1-169); assay: NMR (1H-15N HSQC titration); protein:DNA 5:1 to 1:2; NMR: 20 mM Tris-HCl pH 7.0, 125 mM NaCl, 1 mM TCEP, 10% D2O, 303 K, ~300 uM protein; EMSA and EM buffers not given in material; conditions: protein: recombinant; tags: N-terminal His tag (pNIC28-Bsa4) removed by TEV; 15N/13C labelled; nicked duplex: S42 (10 nt) and S43 (9 nt) annealed to S41
T1 sequence: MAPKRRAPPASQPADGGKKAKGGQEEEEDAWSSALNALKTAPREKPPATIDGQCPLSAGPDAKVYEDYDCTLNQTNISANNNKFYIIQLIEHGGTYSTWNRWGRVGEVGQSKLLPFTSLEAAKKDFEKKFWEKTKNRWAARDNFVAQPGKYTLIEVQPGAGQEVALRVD

cPARP3 NTD-WGR (1-169) [4] = molecular target: T1, cPARP3 NTD-WGR (1-169); assay: NMR (1H-15N HSQC); NMR: 20 mM Tris-HCl pH 7.0, 125 mM NaCl, 1 mM TCEP, 10% D2O, 303 K, ~300 uM protein; EMSA and EM buffers not given in material; conditions: protein: recombinant; tags: N-terminal His tag (pNIC28-Bsa4) removed by TEV; 15N/13C labelled; 9 bp with 3' overhang 10 nt on S41

percent of nucleosomes with a co-locating gold particle [1]: 85%
Molecule: Full-length His-tagged chicken PARP3 (from UniProt E1BSI0 1-526) (enzyme)

Molecule: intact 601.2 mononucleosome
binding signal (% of nucleosomes with gold particle) [2]: 30

Molecule: nicked 601.2 mononucleosome
binding signal (% of nucleosomes with gold particle) ([2]; single nick at nucleotide 45 (Nt.BsmAI)): 85

B1: 19-bp duplex with 5'-phosphorylated nick (Gap0 NMR) (dsDNA)
DNA 1: GCACAGCCGTGAGCGATGC
DNA 2: GCATCGCTCA
DNA 3: CGGCTGTGC
modifications: 5'-phosphate on S43
binding result (cPARP3 NTD-WGR (1-169) [3]): binds

B2: 10-nt 3'-overhang duplex with recessed 5'-phosphate (dsDNA)
DNA 1: GCACAGCCGTGAGCGATGC
DNA 2: CGGCTGTGC
modifications: 5'-phosphate on S43
binding result (cPARP3 NTD-WGR (1-169) [4]): binds
